According to the supplement of paper PMC10567573:
± gives the standard deviation.

Assay: protein stability index of a GFP-peptide fusion (GPS, HEK-293T) (PSI 1-6); higher = more stable
[1] = treatment: DMSO, c terminus: a fixed tail appended
[2] = treatment: MLN4924 1 uM, 8 h, c terminus: a fixed tail appended
[3] = treatment: DMSO, c terminus: native
[4] = treatment: MLN4924 1 uM, 8 h, c terminus: native
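Note: 24-mer peptide tiles fused after GFP, lentivirally expressed, FACS-sorted into six equal bins by GFP/DsRed ratio, decoded by Illumina sequencing, PSI is the read-weighted mean bin number.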

| Sequence | protein stability index [1] | protein stability index [2] | protein stability index [3] | protein stability index [4] |
| --- | --- | --- | --- | --- |
| PETVRMVLSNMEKLFCIPVHGIRS [IMPA1] | 2.65 ± 0.27 | 2.94 ± 0.3 |  |  |
| HEEEPLGTAGPLALARDLLSETAD [GMPPB] | 5.38 ± 0.42 | 5.18 ± 0.15 |  |  |
| SSFSRPLGYPYVNSVSSHASSPYI [DLX1] | 2.62 ± 0.18 | 2.79 ± 0.51 |  |  |
| MITLSEAYIQIWKRRDNDETNQQG [USP39] | 3.15 ± 0.31 | 3.31 ± 0.38 |  |  |
| NFVYNSPRGYFHTFAGDTCQVALN [WASL] | 2.24 ± 0.44 | 2.27 ± 0.64 |  |  |
| YQELMSLKLALDMEIATYRKLLES [KRT71] | 2.38 ± 0.32 | 2.16 ± 0.22 |  |  |
| GCSLTADGLPLHFFIQTVRPKDTV [MYORG] | 2.3 ± 0.25 | 2.19 ± 0.33 |  |  |
| DMKVNPIQGLASKWDYEKNEWKK [COX4I1] |  |  | 4.45 ± 0.27 | 4.72 ± 0.24 |
| DQIGSEIIEELGEQRDQLERTKSR [VTI1B] | 5.53 ± 0.24 | 5.47 ± 0.37 |  |  |
| LDNTKKKMEIYQKENKDVIQKNKL [MNAT1] | 4.44 ± 0.2 | 4.34 ± 0.18 |  |  |
| WNQILDPWVYILLRKAVLKNLYKL [PTGFR] | 2.7 ± 1.1 | 2.03 ± 0.93 |  |  |
| MAEESSCTRDCMSFSVLNWDQVSR [TENT5C] | 2.71 ± 0.29 | 2.99 ± 0.22 |  |  |
| EQAPAPGEATAAPAPLCGGPSAEA [TBX6] | 5.5 ± 0.31 | 5.46 ± 0.25 |  |  |
| QAIDHGCEHICVNSDDSYTCECLE [MATN2] | 5.43 ± 0.098 | 5.14 ± 0.28 |  |  |
| IKTAVNLPLERDAESFLLKSPIAP [CDC25B] | 3.23 ± 0.24 | 3.14 ± 0.36 |  |  |
| LKRKNKQAFLDELESSDLPVALLL [MNAT1] | 2.2 ± 0.42 | 2 ± 0.3 |  |  |
| INSRRWCSNLTPNVPNVCRMYCSD [SPACA3] | 2.13 ± 0.26 | 2.42 ± 0.33 |  |  |
| TGDPLPEISKDNSCKENCTCSSCL [EDARADD] | 5.47 ± 0.3 | 5.47 ± 0.26 |  |  |
| IVSQKQIADRAAHDESPGNNVVDI [RAB11B] | 5.16 ± 0.12 | 5.12 ± 0.1 |  |  |
| GGQDGLGAPKDQQQPPQQQPSQQQ [KLHL14] | 5.36 ± 0.5 | 5.4 ± 0.56 |  |  |
| QSEHTMVLRCQLSAEEVRFPVSVT [C2CD2L] | 2.64 ± 0.33 | 2.49 ± 0.42 |  |  |
| DTYNDMATLFFNPQESAILQLFHQ [CLCN6] | 2.6 ± 0.34 | 2.43 ± 0.21 |  |  |
| LIFFLFIGVILFSSAVYFAEADEP [KCNA4] | 2.19 ± 0.086 | 2.38 ± 0.29 |  |  |

| Sequence | protein stability index [1] | protein stability index [2] | protein stability index [3] | protein stability index [4] |
| --- | --- | --- | --- | --- |
| ITTLRVPVLRPMDLMVEATPRRVF [PPP2R2B] | 2.52 ± 0.17 | 2.71 ± 0.27 |  |  |
| TAFLLNIQLFEELQELLTHDTKDQ [HMOX1] | 2.32 ± 0.28 | 2.49 ± 0.44 |  |  |
| IHLSAPCIYSEVMEALKLQPGLSF [PCMTD1] | 2.33 ± 0.67 | 2.61 ± 0.34 |  |  |
| LTASRQSFRMAMGNPSEFFVDVM [DVL3] |  |  | 2.41 ± 0.65 | 2.54 ± 0.85 |
| NYQVFQKVTDHATTALLHYQLPQM [MED27] | 2.52 ± 0.21 | 2.25 ± 0.24 |  |  |
| PPRGAVERHSDLPPLNPTSWWADL [SPNS1] | 3.28 ± 0.29 | 3.34 ± 0.29 |  |  |
| KVSGNRCASPVTGPGSKRDAHFCA [ESR2] | 2.76 ± 0.44 | 2.79 ± 0.16 |  |  |
| RTIVEEVQDGKVISSREQVHQTTR [KRT17] | 4.69 ± 0.25 | 5.01 ± 0.38 |  |  |
| KLILTSSASVIFEGVDIKNGTEDL [NSDHL] | 3.13 ± 0.33 | 3.27 ± 0.22 |  |  |
| KKRRAQQAPPQDSSNKKEKKVLNH [DYRK1B] | 5.2 ± 0.32 | 5.3 ± 0.13 |  |  |
| DEKQCKQCANKVLQHMKAVQADQE [LRRC59] | 4.78 ± 0.19 | 4.63 ± 0.22 |  |  |
| ALATVSLLSLVTFTFLSAKCLQGN [PCDHGC5] | 3.2 ± 0.29 | 3.16 ± 0.23 |  |  |
| ISKMEPLEIPVETITSEVIEKCTT [CRY1] | 4.08 ± 0.64 | 4.32 ± 0.2 |  |  |
| DDIRKGIVLLEELLPKGSKEEQRD [FIS1] | 4.63 ± 0.43 | 4.6 ± 0.27 |  |  |
| NQPTRFGKLLLRLPSLRTVSSSVI [NR2F2] | 2.44 ± 0.24 | 2.5 ± 0.2 |  |  |
| QLIDNILEESDIDRDGTINLSEFQ [CIB1] | 3.69 ± 0.35 | 3.89 ± 0.26 |  |  |
| RGWLLTSGTDKVIKLWDMTPVVS [WDFY2] |  |  | 2.01 ± 0.2 | 2.26 ± 0.24 |
| WREFHYIQSKLGIVSLLLGTIHAL [STEAP1] | 2.96 ± 0.56 | 3.15 ± 0.69 |  |  |
| VRHNLGDTRLGQVSALPLPPAMKR [SPSB2] | 3.89 ± 0.097 | 3.98 ± 0.33 |  |  |
| SEDVNWGYEKRNLARVPKLDLKRQ [CHGB] | 4.34 ± 0.3 | 4.27 ± 0.25 |  |  |
| KNYFQHREFSFTLKDDIYIRYQSF [PRIM1] | 2.22 ± 0.9 | 2.26 ± 0.87 |  |  |
| QKPRGLEGGVLRGSKLEKGHLRGP [ZSWIM9] | 3.98 ± 0.63 | 3.82 ± 0.54 |  |  |
| LNPHVHLVGDDAACIAYIRLTQYM [CAMK2D] | 2.32 ± 0.38 | 2.29 ± 0.66 |  |  |

| Sequence | protein stability index [1] | protein stability index [2] | protein stability index [3] | protein stability index [4] |
| --- | --- | --- | --- | --- |
| DMSYSIRHSISMPAMRNSPTFKSF [TPD52L1] | 2.94 ± 0.24 | 2.95 ± 0.32 |  |  |
| GTNEALLRQLRELEEQFALEAGGY [PRPH] | 4.07 ± 0.24 | 3.92 ± 0.26 |  |  |
| RGLVGVGEASYSTIAPTLIADLFV [SPNS1] | 2.29 ± 0.62 | 2.13 ± 0.26 |  |  |
| LIVPFGLLYSEVTASSLVKINLQG [ADD1] | 3.03 ± 0.47 | 2.88 ± 0.36 |  |  |
| SQTDRGASAGKRRCFWLGMEGLET [SDE2] | 2.87 ± 0.45 | 2.96 ± 0.14 |  |  |
| KLSFRARAYGFRGPGPQLRRGWRP [CHGA] | 3.01 ± 0.2 | 3.08 ± 0.29 |  |  |
| KVMIHPDPERRPSAMALVKHSVLL [WEE1] | 2.22 ± 0.14 | 2.34 ± 0.57 |  |  |
| LGHMFMYFLRGSLPWQGLKADTLK [CSNK1G3] | 2.06 ± 0.26 | 2.57 ± 0.98 |  |  |
| AVIYLGYCFCGWIVLGPYHVKFRS [MCOLN1] | 3.08 ± 1.1 | 2.86 ± 0.52 |  |  |
| VTSTSQSPHSPDSSQSSLAQEEEE [DDIT3] | 5.53 ± 0.1 | 5.64 ± 0.12 |  |  |
| LTFHRHPVAQSTDGIRGKVGHARG [SPSB4] | 3.99 ± 0.32 | 3.97 ± 0.26 |  |  |
| IVRLRTIGELLAPAAPFDKKCGRE [WSB1] | 2.64 ± 0.2 | 2.85 ± 0.34 |  |  |
| ISDRYSPELRQLVLSLLSLEPAQR [NEK8] | 2.66 ± 0.38 | 2.3 ± 0.39 |  |  |
| ILGRGLQEYQLPYQRVLPLPIFTP [TCAP] | 2.25 ± 0.21 | 2.37 ± 0.12 |  |  |
| MSLRNRLSKSRENPEEDEDQRNPA [SOAT1] | 5.58 ± 0.14 | 5.45 ± 0.14 |  |  |
| VLAEGDNASRSLYPDAEDPQLGLD [PSD2] | 5.52 ± 0.25 | 5.34 ± 0.15 |  |  |
| AREGSSEPWLPLTDGRSPRRSRDP [PLEKHN1] | 5.17 ± 0.43 | 5.1 ± 0.098 |  |  |
| DITQEEYGEFYKSLTNDWEDHLAV [HSP90AB1] | 3.85 ± 0.17 | 4.01 ± 0.22 |  |  |
| LMKESLQTGDLLSTFHTISPSFQL [PLAGL1] | 2.24 ± 0.13 | 2.17 ± 0.16 |  |  |
| KSHVMDQAINNAINYLGAESLRPL [IKZF1] | 2.58 ± 0.24 | 2.49 ± 0.31 |  |  |
| KGDKCKFSHDLTLERKCEKRSVYI [ZC3H15] | 2.74 ± 0.22 | 2.63 ± 0.067 |  |  |
| KVQNECPGITRVYSIGRSVEGRHL [CPN1] | 3.08 ± 0.22 | 3.29 ± 0.5 |  |  |
| QETRGELQCRSPPRLHGAKAILDA [TBC1D10A] | 4.55 ± 0.27 | 4.62 ± 0.12 |  |  |

| Sequence | protein stability index [1] | protein stability index [2] | protein stability index [3] | protein stability index [4] |
| --- | --- | --- | --- | --- |
| SRGACTSHDPQSSRGSRRRRRQRS [KCNA4] | 5.39 ± 0.4 | 5.53 ± 0.32 |  |  |
| DSHLGGNARGMGIRSPRPASVATW [CTBP1-DT] | 3.56 ± 0.24 | 3.63 ± 0.2 |  |  |
| NVEDEAETKKVLGLQDTITAELVV [PALM] | 4.3 ± 0.28 | 4.25 ± 0.18 |  |  |
| CGPIAGSRQALSFEVPPCNYDPEK | 4.24 ± 0.23 | 4.13 ± 0.46 |  |  |
| HTKRLYRAVVEAVHRLDLILCNKT [SMG5] | 2.77 ± 0.36 | 2.82 ± 0.65 |  |  |
| FLVLEQFLTILPEELQSWVRGHHP [ZNF232] | 2.45 ± 0.55 | 2.5 ± 0.62 |  |  |
| QQHSDKTSLQGLTGTPLVAGSPIR [ISL2] | 4.2 ± 0.21 | 4.39 ± 0.13 |  |  |
| ERENVAVAKLQESQPGNAVIDKET [SDE2] | 5.37 ± 0.25 | 5.06 ± 0.21 |  |  |
| TPGDCPPGRRDEDAGEGIQCSQRM [TMEM175] | 5.15 ± 0.37 | 5.25 ± 0.18 |  |  |
| DFRTKYETELSLRQLVEADINGLR [KRT36] | 3.15 ± 0.15 | 3.38 ± 0.17 |  |  |
| SLVAILLVFLITAILVKVQLDALP [SLC29A1] | 2.35 ± 0.6 | 2.54 ± 0.58 |  |  |
| QWTVGKLNCPFCGARLGGFNFVST [RNF180] | 2.46 ± 0.39 | 2.65 ± 0.54 |  |  |
| KRRVALSPVTENSTSLSFLDSCNS [MYBL2] | 3.65 ± 0.2 | 3.92 ± 0.34 |  |  |
| RVLQNLLTIEERYLPQCSYFKCVQ [CCND2] | 3.08 ± 0.22 | 2.69 ± 0.57 |  |  |
| ERSVVTRDIRCSEDEKLCDPNTRP [ADAMTSL2] | 5.06 ± 0.31 | 5.41 ± 0.27 |  |  |
| GTQPRATKHKCRQLTKASLKPRGC [SPACA9] | 3.81 ± 0.29 | 3.95 ± 0.19 |  |  |
| LAFKNDIQFWNSRQSLEGLSVRSV [CLPTM1] | 2.45 ± 0.18 | 2.5 ± 0.14 |  |  |
| AFDYIKQRRSMVSPNFGFMGQLLQ [DUSP5] | 2.14 ± 0.25 | 2.27 ± 0.39 |  |  |
| TQDSARVNPQDGTNTLTRIAENGV [EHMT1] | 5.11 ± 0.16 | 5.1 ± 0.19 |  |  |
| GSLPGPGQTSGAREPPQAVSIKEA [VENTX] | 5.01 ± 0.41 | 5.52 ± 0.2 |  |  |
